EC50 data for 13 molecules are collected here from patent US20230357427A1 (SHANGHAI IMMUNOHEAD BIOTECHNOLOGY, published 2023).

Substitutions are numbered along the chain they refer to.

Assay [1] addresses T1, EpCAM on human tumor cells (SW480, HCT116, HCT116-Luc, KATO-III, A549) (human, UniProt P16422 24-314).
T1 construct: whole, on cells; also called epithelial cell adhesion molecule
T1 sequence (looked up): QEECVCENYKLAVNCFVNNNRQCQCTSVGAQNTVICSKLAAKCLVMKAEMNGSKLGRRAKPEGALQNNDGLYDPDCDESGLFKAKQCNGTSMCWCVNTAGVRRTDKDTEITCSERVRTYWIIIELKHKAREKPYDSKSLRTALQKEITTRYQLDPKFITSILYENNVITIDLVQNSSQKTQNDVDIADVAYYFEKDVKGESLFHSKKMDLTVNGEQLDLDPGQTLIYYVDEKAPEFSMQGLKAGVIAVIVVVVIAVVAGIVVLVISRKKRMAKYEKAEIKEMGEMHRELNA
Kind of assay: flow cytometry on SW480 cells. The text has this:
(§1) The EC50 values of each recombinant antibody on SW480 and HCT116 are shown in Table 3, which are derived from FIGS. 1-4.
On the technique in general: In flow cytometry, cells or beads pass a laser one at a time.

Assay [2] has as its target T1, EpCAM on human tumor cells (SW480, …). Kind of assay: flow cytometry on HCT116 cells.
Description: as §1

B1: H2L1 (antibody, V domains shown)
VH: QVQLVQSGAEVKKPGASVKVSCKASGYTFTNYWINWVRQAPGQGLEWIGNIYPSYIYTNYNQEFKDKVTLTVDESTSTAYMELSSLRSEDTAVYYCTRSPYGYDEYGLDYWGQGTTVTVSS
VL: DIQLTQSPSSLSASVGDRVTMTCKSSQSLLNSRNQKNYLTWYQQKPGKAPKLLIYWASTRESGVPSRFSGSGSGTDFTLTISSVQPEDFATYYCQNDYVYPLTFGQGTKLEIK
notes: Recombinant antibody from ExpiCHO-s; the limits were counted from the printed signal peptide, linker and hinge
On to B1, for which the EC50 in assay [1] is 0.599 µg/mL; in assay [2] it was 0.583 µg/mL.

B2: H2L3 (antibody, V domains shown)
VH: B1 VH
VL: DIVLTQSPDSLAVSLGERATMNCKSSQSLLNSRNQKNYLTWYQQKPGQPPKLLIYWASTRESGVPDRFSGSGSGTDFTLTISSLQAEDVAVYYCQNDYVYPLTFGQGTKLEIK
notes: as for B1
Take B2: the concentration giving a half-maximal response (EC50) in assay [1] amounted to 0.653 µg/mL; in assay [2], 0.584 µg/mL.

B3: H2L4 (antibody, V domains shown)
VH: B1 VH
VL: EIVLTQSPATLSLSPGERATMSCKSSQSLLNSRNQKNYLTWYQQKPGQAPRLLIYWASTRESGIPARFSGSGSGTDFTLTISSLEPEDFAVYYCQNDYVYPLTFGQGTKLEIK
notes: as for B1
As to B3, the EC50 in assay [1] is 0.655 µg/mL; in assay [2] it was 0.584 µg/mL.

B4: H4L1 (antibody, V domains shown)
VH: B1 VH with N61A, E63K, K65Q, D66G, K67R, V72R, E74T, A79V
VL: B1 VL
notes: as for B1
As to B4, the half-maximal effective concentration (EC50) came to 0.568 µg/mL in assay [1] and 0.474 µg/mL in assay [2].

B5: H3L1 (antibody, V domains shown)
VH: B1 VH with K67R, V72R, E74T, T76I, S85R, E89D
VL: B1 VL
notes: as for B1
Regarding B5, the EC50 in assay [1] is 0.564 µg/mL; in assay [2], 0.478 µg/mL.

B6: H1L1 (antibody, V domains shown)
VH: B1 VH with V20L, R38K
VL: B1 VL
notes: Recombinant antibody from ExpiCHO-s; These limits were counted from the printed signal peptide, linker and hinge
On to B6, for which the figures for the 50% effective concentration (EC50) in assay [1] and in assay [2] were 0.567 µg/mL and 0.503 µg/mL, respectively.

B7: H1L4 (antibody, V domains shown)
VH: B1 VH with V20L, R38K
VL: B3 VL
notes: as for B1
Consider B7, for which the concentration for a half-maximal effect (EC50) in assay [1] was found to be 0.675 µg/mL; in assay [2] it was 0.602 µg/mL.

B8: H1L3 (antibody, V domains shown)
VH: B1 VH with V20L, R38K
VL: B2 VL
notes: as for B1
As to B8, the values for the EC50 in assay [1] and in assay [2] were 0.631 µg/mL and 0.563 µg/mL, respectively.

B9: H3L3 (antibody, V domains shown)
VH: B1 VH with K67R, V72R, E74T, T76I, S85R, E89D
VL: B2 VL
notes: as for B1
For B9, the EC50 in assay [1] worked out at 0.542 µg/mL; in assay [2] it was 0.492 µg/mL.

B10: H5L1 (antibody, V domains shown)
VH: B1 VH with K67R, L70M, V72R, E74T, T76I, S85R, E89D
VL: B1 VL
notes: as for B1
As for B10, the concentration giving a half-maximal response (EC50) is 0.449 µg/mL in assay [1] and 0.426 µg/mL in assay [2].

B11: H2L2 (antibody, V domains shown)
VH: B1 VH
VL: B1 VL with S32T, V84L
notes: as for B1
On to B11, for which the concentration giving a half-maximal response (EC50) in assay [1] is 0.595 µg/mL; in assay [2], 0.537 µg/mL.

B12: H3L2 (antibody, V domains shown)
VH: B1 VH with K67R, V72R, E74T, T76I, S85R, E89D
VL: B1 VL with S32T, V84L
notes: as for B1
Consider B12, for which the concentration giving a half-maximal response (EC50) in assay [1] turned out to be 0.569 µg/mL; in assay [2] it was 0.472 µg/mL.

B13: mHmL (antibody, V domains shown)
VH: QVKLQQSGAELVRPGASVKLSCKASGYTFTNYWINWVKQRPGQGLEWIGNIYPSYIYTNYNQEFKDKVTLTVDESSSTAYMQLSSPTSEDSAVYYCTRSPYGYDEYGLDYWGQGTTVTVSS
VL: DIELTQSPSSLTVTAGEKVTMNCKSSQSLLNSRNQKNYLTWYQQKPGQPPKLLIYWASTRESGVPDRFTGSGSGTDFTLTISSVQAEDLAVYYCQNDYVYPLTFGAGTKLEIK
notes: it was captured on Protein A; also called original antibody mHmL; EpCAM antibody
In the case of B13, the EC50 in assay [1] came to 0.581 µg/mL; in assay [2], 0.468 µg/mL.

For orientation: EC50 means the midpoint of the concentration-response curve. A high value points to weaker potency.
